Experimental data published in publication PMC12339401 (2025).

Experiments:
NIX(1–182)-GST = NIX(1–182)-GST (Homo sapiens (Human), UniProt O60238); test: microscopy-based bead assay
[1] = molecular target: GST-FAM134C (residues 250–466) (Homo sapiens (Human), UniProt Q86VR2); test: microscopy-based bead assay
Chain of GST-FAM134C (residues 250–466) (Q86VR2 250-466): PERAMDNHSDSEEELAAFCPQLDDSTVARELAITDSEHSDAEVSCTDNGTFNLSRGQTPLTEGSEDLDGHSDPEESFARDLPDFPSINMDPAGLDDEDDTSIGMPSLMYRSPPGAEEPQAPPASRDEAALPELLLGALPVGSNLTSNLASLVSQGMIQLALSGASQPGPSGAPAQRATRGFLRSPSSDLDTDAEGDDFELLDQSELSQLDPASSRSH

Chain of NIX(1–182)-GST (O60238 1-182): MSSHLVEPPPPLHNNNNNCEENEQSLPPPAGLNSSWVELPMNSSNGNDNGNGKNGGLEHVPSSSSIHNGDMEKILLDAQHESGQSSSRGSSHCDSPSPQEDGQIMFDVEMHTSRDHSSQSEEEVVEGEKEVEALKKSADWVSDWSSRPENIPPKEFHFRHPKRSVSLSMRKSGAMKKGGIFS

binding result (NIX(1–182)-GST)	binding result [1]	Binder
binds	–	mCherry-tagged WIPI1 (protein) MEAEAADAPPGGVESALSCFSFNQDCTSLATGTKAGYKLFSLSSVEQLDQVHGSNEIPDVYIVERLFSSSLVVVVSHTKPRQMNVYHFKKGTEICNYSYSSNILSIRLNRQRLLVCLEESIYIHNIKDMKLLKTLLDIPANPTGLCALSINHSNSYLAYPGSLTSGEIVLYDGNSLKTVCTIAAHEGTLAAITFNASGSKLASASEKGTVIRVFSVPDGQKLYEFRRGMKRYVTISSLVFSMDSQFLCASSNTETVHIFKLEQVTNSRPEEPSTWSGYMGKMFMAATNYLPTQVSDMMHQDRAFATARLNFSGQRNICTLSTIQKLPRLLVASSSGHLYMYNLDPQDGGECVLIKTHSLLGSGTTEENKENDLRPSLPQSYAATVARPSASSASTVPGYSEDGGALRGEVIPEHEFATGPVCLDDENEFPPIILCRGNQKGKTKQS
no binding	–	mCherry-WIPI3 (protein) not shown
no binding	–	GFP-tagged TBK1 (protein) MQSTSNHLWLLSDILGQGATANVFRGRHKKTGDLFAIKVFNNISFLRPVDVQMREFEVLKKLNHKNIVKLFAIEEETTTRHKVLIMEFCPCGSLYTVLEEPSNAYGLPESEFLIVLRDVVGGMNHLRENGIVHRDIKPGNIMRVIGEDGQSVYKLTDFGAARELEDDEQFVSLYGTEEYLHPDMYERAVLRKDHQKKYGATVDLWSIGVTFYHAATGSLPFRPFEGPRRNKEVMYKIITGKPSGAISGVQKAENGPIDWSGDMPVSCSLSRGLQVLLTPVLANILEADQEKCWGFDQFFAETSDILHRMVIHVFSLQQMTAHKIYIHSYNTATIFHELVYKQTKIISSNQELIYEGRRLVLEPGRLAQHFPKTTEENPIFVVSREPLNTIGLIYEKISLPKVHPRYDLDGDASMAKAITGVVCYACRIASTLLLYQELMRKGIRWLIELIKDDYNETVHKKTEVVITLDFCIRNIEKTVKVYEKLMKINLEAAELGEISDIHTKLLRLSSSQGTIETSLQDIDSRLSPGGSLADAWAHQEGTHPKDRNVEKLQVLLNCMTEIYYQFKKDKAERRLAYNEEQIHKFDKQKLYYHATKAMTHFTDECVKKYEAFLNKSEEWIRKMLHLRKQLLSLTNQCFDIEEEVSKYQEYTNELQETLPQKMFTASSGIKHTMTPIYPSSNTLVEMTLGMKKLKEEMEGVVKELAENNHILERFGSLTMDGGLRNVDCL
no binding	binds	GFP-FIP200 C-terminal region (CTR), residues 1429–1591 (protein) ADEGRVDSAMETSMMSVQENIHMLSEEKQRIMLLERTLQLKEEENKRLNQRLMSQSMSSVSSRHSEKIAIRDFQVGDLVLIILDERHDNYVLFTVSPTLYFLHSESLPALDLKPASGASRRPWVLGKVMEKEYCQAKKAQNRFKVPLGTKFYRVKAVSWNKKV
